The subject of experiment [1] is human β2GPI-dependent antiphospholipid antibody. Kind of experiment: Micropanning of mutant domain 1 phage, patient antibodies. It counts as binding. Particulars: for μpan score: Table 7A; for Micropan score: Table 7B.
The subject of the next experiment is rabbit anti-human β2GPI. Kind of experiment: Micropanning of mutant domain 1 phage, rabbit antibody. It counts as binding. Further details: key: 0 (<10 colonies) to 4+ (confluent) semiquantitative colony score. Particulars: for μpan score: Table 7A; for Micropan score: Table 7B. Here is the method: Error prone PCR was carried out as follows. Domain 1 of human β2GPI was amplified by PCR under conditions that enhance the error rate of Taq polymerase. The primers were such that amino acids 1-64 were amplified. A Sfc 1 restriction site was incorporated as part of amino acid 1. At the 3′ end a Sal 1 restriction site was incorporated after amino acid 64. The PCR reaction was done as described by Leung et al. (1989) Technique 1:11, using 0.25 mM MnCl2. The PCR product was digested with Sfc 1 and Sal 1 and cloned into fd-tet-DOG2 that had been digested with Apal 1 and Sal 1. This positions domain 1 at the N-terminus of pill immediately after the pill signal sequence. The ligation reaction was electroporated in E. coli K91. Phage were harvested and titered by standard methods. Resulting phage clones were assayed using a micropanning technique.
Immulon type 2 plates were coated with protein G. Protein G was prepared at 5 μg/mL in 0.1 M NaHCO3 and 100 μL per well was added to the wells of microtitration plates and incubated overnight at 4° C. After discarding excess protein G solution from plates, each well was blocked with 200 μL 2YT for 1 hour at RT with agitation on an oscillating platform. Tris-buffered saline, pH 7.4/0.5% Tween 20 (TBS/Tween), was used with an automatic plate washer to wash the wells 4 times with 200 μL. One hundred μL human β2GPI-dependent antiphospholipid 6626, 6501, 6701, rabbit β2GPI-dependent antiphospholipid, or control normal IgG, diluted to 2.5 μg/mL with 2YT, was added to washed wells. The plate was incubated for 1 hour at room temperature on a rotating platform.
Phage to be tested by micropanning were obtained from the agar plates generated by biopanning. Each clone to be tested was transferred using sterile toothpicks to a separate well of a round-bottom 96-well microtitration plate (Corning, Corning, N.Y.) containing 200 μL 2YT/Tet per well and cultured overnight at 30° C. Following overnight incubation, phage cultures were centrifuged using a microtitration plate holder at 1300×g for 10 minutes at room temperature. Supernatants constituted the source of “neat” phage. The neat phage were diluted 1: 100-1:1000 and 100 μL was added to the plate containing protein G-bound β2GPI-dependent antiphospholipid antibody-6501 and normal IgG prepared as described above. The incubation of dilute phage with aPL antibody or control IgG was carried out for 2 hours at room temperature on a flat rotator. After 9 washes with TBS/Tween in an automated plate washer, the IgG-bound phage was eluted with 20 μL of 0.2 N HCl-glycine/0.1% BSA, pH 2.2. The elution incubation continued for 10 minutes at RT, during which time a new Corning microtitration plate was prepared containing 20 μL of freshly starved E. coli per well and kept chilled. One hundred forty μL of 29 mM Tris was added to the plate containing the phage eluates in order to neutralize the pH, following which 20 μL of phage suspension was transferred from each well to the corresponding well in the plate containing starved E. coli. After a 10 minute incubation at 37° C., 200 μL 2YT was added and incubation carried out an additional 30 minutes at 37° C. Using multichannel pipettors, 8 μL from each well was spotted on a large 2YT/Tet agar plate while retaining the original 8×12 well pattern and orientation from the last microtitration plate. After allowing the spots to dry for 30 minutes, the plate was incubated overnight at 30° C. The following day, colonies were semiquantitatively scored from 0 to 4+, with 0 symbolizing <10 colonies; 1+=10-30; 2+=30 colonies to 70% confluent; 3+=70%-90% confluent; 4+=confluent.
For Table 7A, the rabbit anti-human β2GPI was performed on two separate occasions. Mutations are listed with the original amino acid, the position number, and the identity of the amino acid at that position in the mutant. […] Non-mutated domain 1 have a score of 3+, while domain 5 phage gave a score of −. Silent mutations are not shown. […]

This is an account of results in patent publication US6858210B1, “Therapeutic and diagnostic domain 1 β2GPI polypeptides and methods of using same” (La Jolla Pharmaceutical Co., priority 1998, dated 2005).

B1: 2A1: phage clone, domain 1 mutant T20S (protein)
chain: GRTCPKPDDLPFSTVVPLKSFYEPGEEITYSCKPGYVSRGGMRKFICPLTGLWPINTLKCTPRV
Take B1: the μpan score (in experiment [1] (antibody 6501); in experiment [1] (antibody 6626); in experiment [1] (antibody 6701); in the experiment with rabbit anti-human β2GPI (first (or only) value)) was 3 throughout. Moreover, the Micropan score in experiment [1] (antibody 6226), in experiment [1] (antibody 6501), in experiment [1] (antibody 6632), in experiment [1] (antibody 6644), in experiment [1] (antibody 6701) and in experiment [1] (antibody 7008) was 4 throughout. Besides, the Micropan score in the experiment with rabbit anti-human β2GPI (1st column), in the experiment with rabbit anti-human β2GPI (2nd column), in the experiment on rabbit anti-human β2GPI (3rd column) and in the experiment on rabbit anti-human β2GPI (4th column) was 4 in each case.

B2: B11: phage clone, domain 1 mutant M42K (protein)
chain: GRTCPKPDDLPFSTVVPLKTFYEPGEEITYSCKPGYVSRGGKRKFICPLTGLWPINTLKCTPRV
On to B2, for which the μpan score came to 3 in experiment [1] (antibody 6501); 3 in experiment [1] (antibody 6626); 3 in experiment [1] (antibody 6701); 3 with rabbit anti-human β2GPI (first (or only) value); 4 in the experiment on rabbit anti-human β2GPI (second value (second occasion)). Moreover, the Micropan score in experiment [1] (antibody 6226), in experiment [1] (antibody 6501), in experiment [1] (antibody 6632), in experiment [1] (antibody 6644), in experiment [1] (antibody 6701) and in experiment [1] (antibody 7008) was 4 each time. The Micropan score in the experiment on rabbit anti-human β2GPI (1st column), in the experiment on rabbit anti-human β2GPI (2nd column), in the experiment on rabbit anti-human β2GPI (3rd column) and in the experiment on rabbit anti-human β2GPI (4th column) was 4 throughout.

B3: A10: phage clone, domain 1 mutant D8G (protein)
chain: GRTCPKPGDLPFSTVVPLKTFYEPGEEITYSCKPGYVSRGGMRKFICPLTGLWPINTLKCTPRV
Turning to B3, the μpan score in experiment [1] (antibody 6501) is recorded as 2; in experiment [1] (antibody 6626), 2; in experiment [1] (antibody 6701), 2; with rabbit anti-human β2GPI (first (or only) value) it was 2, 2; in the experiment on rabbit anti-human β2GPI (second value (second occasion)), 2, 2.

B4: 2D4: phage clone, domain 1 mutant M42T (protein)
chain: GRTCPKPDDLPFSTVVPLKTFYEPGEEITYSCKPGYVSRGGTRKFICPLTGLWPINTLKCTPRV
On to B4, for which the μpan score in experiment [1] (antibody 6501) was 2; in experiment [1] (antibody 6626), 1; in experiment [1] (antibody 6701) it was 3; in the experiment with rabbit anti-human β2GPI (first (or only) value), 3. In addition, the Micropan score is listed as 3 in experiment [1] (antibody 6226); 4 in experiment [1] (antibody 6501); 4 in experiment [1] (antibody 6632); 4 in experiment [1] (antibody 6644); 4 in experiment [1] (antibody 6701); 4 in experiment [1] (antibody 7008). For the same molecule, the Micropan score in the experiment with rabbit anti-human β2GPI (1st column), in the experiment on rabbit anti-human β2GPI (2nd column), in the experiment with rabbit anti-human β2GPI (3rd column) and with rabbit anti-human β2GPI (4th column) was 4 in each case.

B5: 2B2: phage clone, domain 1 mutant V37E (protein)
chain: GRTCPKPDDLPFSTVVPLKTFYEPGEEITYSCKPGYESRGGMRKFICPLTGLWPINTLKCTPRV
In the case of B5, the μpan score (in experiment [1] (antibody 6501); in experiment [1] (antibody 6626); in experiment [1] (antibody 6701); in the experiment with rabbit anti-human β2GPI (first (or only) value)) was 3 each time. Further, the Micropan score in experiment [1] (antibody 6226), in experiment [1] (antibody 6501), in experiment [1] (antibody 6632), in experiment [1] (antibody 6644), in experiment [1] (antibody 6701) and in experiment [1] (antibody 7008) was 4 throughout. The Micropan score in the experiment with rabbit anti-human β2GPI (1st column), in the experiment on rabbit anti-human β2GPI (2nd column), in the experiment with rabbit anti-human β2GPI (3rd column) and in the experiment with rabbit anti-human β2GPI (4th column) was 4 in each case.

B6: 2D12: phage clone, domain 1 mutant F45L (protein)
chain: GRTCPKPDDLPFSTVVPLKTFYEPGEEITYSCKPGYVSRGGMRKLICPLTGLWPINTLKCTPRV
Take B6: the μpan score in experiment [1] (antibody 6501) is listed as 3; in experiment [1] (antibody 6626), 2; in experiment [1] (antibody 6701), 2; in the experiment with rabbit anti-human β2GPI (first (or only) value), 3. In addition, the Micropan score in experiment [1] (antibody 6226) is 4; in experiment [1] (antibody 6501), 4; in experiment [1] (antibody 6632) it was 4; in experiment [1] (antibody 6644), 4; in experiment [1] (antibody 6701) it was 2; in experiment [1] (antibody 7008) it was 4. In addition, the Micropan score with rabbit anti-human β2GPI (1st column), in the experiment with rabbit anti-human β2GPI (2nd column), in the experiment on rabbit anti-human β2GPI (3rd column) and in the experiment on rabbit anti-human β2GPI (4th column) was 4 throughout.

B7: 2C3: phage clone, domain 1 mutant P54S (protein)
chain: GRTCPKPDDLPFSTVVPLKTFYEPGEEITYSCKPGYVSRGGMRKFICPLTGLWSINTLKCTPRV
In the case of B7, the μpan score in experiment [1] (antibody 6501) is 1; in experiment [1] (antibody 6626), 1; in experiment [1] (antibody 6701) it was 1; in the experiment with rabbit anti-human β2GPI (first (or only) value), 3. The Micropan score was 2 in experiment [1] (antibody 6226); 2 in experiment [1] (antibody 6501); 3 in experiment [1] (antibody 6632); 3 in experiment [1] (antibody 6644); 2 in experiment [1] (antibody 6701); 3 in experiment [1] (antibody 7008). Besides, the Micropan score in the experiment on rabbit anti-human β2GPI (1st column) came out at 2; in the experiment on rabbit anti-human β2GPI (2nd column) it was 4; in the experiment on rabbit anti-human β2GPI (3rd column) it was 4; with rabbit anti-human β2GPI (4th column), 4.

B8: 2D9: phage clone displaying β2GPI domain 1 mutant T3P (protein)
chain: GRPCPKPDDLPFSTVVPLKTFYEPGEEITYSCKPGYVSRGGMRKFICPLTGLWPINTLKCTPRVAEPVESCLAKPHTENSFTNVWKDDKTLDRYANYEGCLWNATGVVVCTGDETQCYGTWVPIGLAIPENEGGGSEGGGSEGGGSEGGGTKPPEYGDTPIPGYTYINPLDGTYPPGTEQNPANPNPSLEESQPLNTFMFQNNRFRNRQGALTVYTGTVTQGTDPVKTYYQYTPVSSKAMYDAYWNGKFRDCAFHSGFNEDPFVCEYQGQSSDLPQPPVNAGGGSGGGSGGGSEGGGSEGGGSEGGGSEGGGSGGGSGSGDFDYEKMANANKGAMTENADENALQSDAKGKLDSVATDYGAAIDGFIGDVSGLANGNGATGDFAGSNSQMAQVGDGDNSPLMNNFRQYLPSLPQSVECRPYVFGAGKPYEFSIDCDKINLFRGVFAFLLYVATFMYVFSTFANILRNKES
With B8, the μpan score is 3 in experiment [1] (antibody 6501), 2 in experiment [1] (antibody 6626), 3 in experiment [1] (antibody 6701) and 2 in the experiment with rabbit anti-human β2GPI (first (or only) value). Further, the Micropan score in experiment [1] (antibody 6226) is reported as 4; in experiment [1] (antibody 6501) it was 4; in experiment [1] (antibody 6632), 3; in experiment [1] (antibody 6644), 4; in experiment [1] (antibody 6701), 4; in experiment [1] (antibody 7008), 4. For the same molecule, the Micropan score with rabbit anti-human β2GPI (1st column), in the experiment with rabbit anti-human β2GPI (2nd column), with rabbit anti-human β2GPI (3rd column) and with rabbit anti-human β2GPI (4th column) was 4 throughout.
